Measured values: article PMC11633098

Legend:
human plasmin (human) [1] = target: human plasmin (human)
human plasmin (human) [2] = target: human plasmin (human); remark: listed apart in the source
[3] = target: human plasminogen (human) (UniProt P00747); assay: ELISA; solid-phase binding: Plg, Pln or BSA immobilised on 4HBX plates; increasing concentrations (1 nM to 4 µM) of recombinant protein; anti-His HRP detection; one-site specific binding fit; apparent KD
human plasmin (human) [4] = assay: as above
[5] = target: human plasminogen (human) (UniProt P00747); assay: ELISA; inhibition assay: Plg or Pln coated at 0.5 µg/well; 100 nM rSesY with 0 to 10 mM tranexamic acid or arginine; anti-His HRP detection; RT, 1 h
human plasmin (human) [6] = assay: as above

Sequence of UniProt P00747 (P00747 20-810): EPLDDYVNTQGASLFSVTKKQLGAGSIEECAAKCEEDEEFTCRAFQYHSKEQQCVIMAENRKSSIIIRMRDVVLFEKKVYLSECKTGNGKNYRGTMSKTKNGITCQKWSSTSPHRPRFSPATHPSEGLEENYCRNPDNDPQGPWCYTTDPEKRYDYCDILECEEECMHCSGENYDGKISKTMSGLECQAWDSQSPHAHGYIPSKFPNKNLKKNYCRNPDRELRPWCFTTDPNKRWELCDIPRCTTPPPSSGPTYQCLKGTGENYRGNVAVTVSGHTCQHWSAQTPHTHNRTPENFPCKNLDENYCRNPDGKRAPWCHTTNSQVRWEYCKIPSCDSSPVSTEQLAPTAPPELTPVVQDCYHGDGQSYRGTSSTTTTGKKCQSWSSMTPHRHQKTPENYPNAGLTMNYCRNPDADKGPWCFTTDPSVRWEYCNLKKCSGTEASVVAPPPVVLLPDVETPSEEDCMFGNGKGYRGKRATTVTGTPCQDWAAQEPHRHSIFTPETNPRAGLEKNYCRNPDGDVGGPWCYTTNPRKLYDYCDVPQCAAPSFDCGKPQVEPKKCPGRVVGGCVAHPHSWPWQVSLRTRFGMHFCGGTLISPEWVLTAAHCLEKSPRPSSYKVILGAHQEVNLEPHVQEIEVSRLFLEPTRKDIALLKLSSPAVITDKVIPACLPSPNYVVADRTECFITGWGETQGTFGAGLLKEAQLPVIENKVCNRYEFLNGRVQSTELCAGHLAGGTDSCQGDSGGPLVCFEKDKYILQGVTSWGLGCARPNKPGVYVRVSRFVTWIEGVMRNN

Substance | fibrin gel remaining at 6 h and 12 h after digestion of pre-formed fibrin gel by Pln with 1, 2.5, 5 and 10 µM rSesY (38% to over 80%) (human plasmin (human) [1]) [%] | fibrin gel remaining at 12 h after digestion of pre-formed fibrin gel by Pln with 5 µM rSesY (controls 10%–25%) (human plasmin (human) [1]) [%] | Vmax of Pln on S-2251 without and with rSesY (0 to 10 µM) (human plasmin (human) [2]) [nM/min] | Kd [3] [nM] | Kd (human plasmin (human) [4]) [nM] | percent reduction of binding by 2 mM tranexamic acid [5] [%] | percent reduction of binding by 2 mM tranexamic acid (human plasmin (human) [6]) [%]
recombinant SesY_(32–341) (S. epidermidis surface protein Y) (domain or fragment) | > 80 | 80 | 1.8 | 210 | 16 | > 85 | > 85
recombinant fibronectin-binding protein B N2N3 domain from S. aureus (from UniProt A0A0H2XKG3 37-940) (domain or fragment) | – | – | – | 30 | – | – | –
